Measurements: PMC3517013

How the values were obtained:
purified protein [1] = substrate: OCC1=C[C@H](N[C@H]2C[C@H](CO)[C@@H](O[C@@H]3O[C@H](CO)[C@@H](O)[C@H](O)[C@H]3O)[C@H](O)[C@H]2O)[C@H](O)[C@@H](O)[C@@H]1O; test: purified protein; assay type: biochemical, Streptomyces hygroscopicus; details: apparent; co-substrate α-ketoglutarate, Fe(II); hydroxylation at C-6'
purified protein [2] = substrate: O=C(O)CCC(=O)C(=O)O; test: purified protein; assay type: biochemical, Streptomyces hygroscopicus; details: apparent; co-substrate validamycin A, Fe(II)

B1: VldW (Streptomyces hygroscopicus subsp. limoneus) (protein)
chain: MTGSVPIVDLEAWRAADEENRASLAEIIDGALHTVGTFLLAGHGVPAELTARMRTAGRSFFDLPWEKKEPHAVQRPHDNGWRGLVKHRTDTIEGTGGAPDLHEAFHMGPTHRTGDDAFDALYYPANKWPAELPELRETALAYTAHMTRVAGAVMEMLAGVLGLEPAFFTSRCEHATWTQSVNWYPSLDTVGQTAEGQMRVGPHTDFGTITLLDRQQGVSGLEVWSEEDGWFAPPFVEGTLLVNLGDLMHQWTDGRWRSLRHRVLAPSASAPQEELVSLVYFFDADPEAELVPLAAPVGGGAGMPTVNVGETILKKNIQMLTDLKGHGLFQGELSLSRPGSADSPGSSPADDHPSRPGRHPAQGPQ
Purified protein [1]
  Km: 303 ± 36 µM
  kcat: 0.0162 ± 0.00233 s⁻¹
Purified protein [2]
  Km: 19 ± 3.5 µM
  kcat: 0.0162 ± 0.00233 s⁻¹
